± gives the half width of the 95% confidence interval.
What was measured:
[1] = folding stability dG unfold (combined trypsin and chymotrypsin); higher = more stable
Method in brief: (§1)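 Digests were run with trypsin and chymotrypsin at 11 concentrations in threefold dilutions, plus a no-protease condition, on designed mini-proteins in a PA-tagged cDNA display construct. The mini-proteins were under 80 residues, had no cysteine, and were kept only when AlphaFold2 dimer inter-PAE was above 15. After sequencing, Bayesian fitting of the counts gave K50, from which unfolding free energy was derived against a sequence-predicted unfolded-state K50 and a shared folded-state K50, per protease or combined.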

[2] = folding stability dG unfold from chymotrypsin proteolysis; higher = more stable
Method in brief: as §1

[3] = folding stability dG unfold from trypsin proteolysis; higher = more stable
Method in brief: as §1

Sequence	folding stability dG unfold [1] [kcal/mol]	folding stability dG unfold [2] [kcal/mol]	folding stability dG unfold [3] [kcal/mol]
SAGGPISKKKIVTAPVSYDPATGKYTITLTYPDSTYTIPSDLSDLEEALKRAKEKLEKETGIPVETVLGSAG [r5_251_JUSTAS]	0.918 ± 0.074	1 ± 0.11	0.576 ± 0.032
SAGGPKKAIEILKKEGFTIKSVDPKKKKVIATPKETDIPIEIYVIGDDKVLIVEYLKGKPIIKEFKKSAGGS [r16_197_TrMRF]	0.829 ± 0.15	0.741 ± 0.12	0.834 ± 0.04
SAGGPKPGEKWIARTKEGLVPITLEGDKVTITDALTGKKTVIPIPGASLEEIKELLLSEPDYEVYPESAGGS [r16_583_JUSTAS]	-0.404 ± 0.19	-0.737 ± 0.32	-0.603 ± 0.37
SAGGPKVVRIRYTMPPDQARDFIEELFGRPMSADDIADKLPPGFKVGIRAHPNPNGHVTFEIWIKLPDSAGG [r13_869_TrROS]	2.93 ± 0.11	3.068 ± 0.021	2.37 ± 0.062
SAGGPLEVTLVESETTFLPEGKVVTREVTRLPDDTILVTTYTTTIDPNSGTTTTTSETVVLPAGAALSAGGS [r16_639_JUSTAS]	1.49 ± 0.032	0.627 ± 0.068	2.11 ± 0.046
SAGGPLTLEDLKNMPPGEKLEFTFGGYTYEVEIYKNDNGPPYITVKQRDPHDGEPVEEKRVPADDIVSAGGS [r16_763_TrROS]	1.58 ± 0.058	1.92 ± 0.026	0.956 ± 0.032
SAGGPLTLEFTLPNGDEVGDVTVEPLPDDSYIVTVVAEDKDRPGVYYVSLVRIPPTDRTLEVVSGPVYSAGG [r13_370_TrMRF]	1.2 ± 0.064	1.24 ± 0.12	1.12 ± 0.02
SAGGPLTLTIPLPDGTTITVTLTRNPDTPSYTATADITFPDGSVVRIHATINSDGSITIHSVEVFPASAGGS [r16_213_TrMRF]	5.19 ± 0.18	5.06 ± 0.24	4.51 ± 0.57
SAGGPMPLDDIEIHNVWPYKGEYWMVMITVPNNGKEIMIPWDDLDELLENDPNVEVDVMPIKPGQPMSAGGS [r16_61_TrROS]	1.25 ± 0.083	1.21 ± 0.061	1.12 ± 0.04
SAGGPMRRVKVEIKDPDGGKIEIDDVYVPDNSVWAKIFLPDLGREIPFPFDTPDQAVEWIKDFVLQLSAGGS [r16_736_TrROS]	0.929 ± 0.29	1.15 ± 0.21	0.482 ± 0.099
SAGGPMYIVIKVEVWNPDNGKKREINIVIPIPPGMTPEQMLEKAKELARTIAEENGYEVRIDEIHIFSAGGS [r8_312_TrROS]	3.03 ± 0.098	2.862 ± 0.02	3.13 ± 0.087
SAGGPNVPIRIRVTIERQDPDGEPKDFEFPIEYPMPPDDPEQAKEQIEELAESIAEKHGYKVEIEIEPSAGG [r13_853_TrROS]	-0.627 ± 0.55	-0.45 ± 0.29	-0.664 ± 0.18
SAGGPPIKKAEIKEIYPEKGIINAIIELEDIPKPYEAIGIITDEKEGIIFVEIINPEGGPPLYFTIKASAGG [r13_337_TrMRF]	0.972 ± 0.22	1.09 ± 0.1	0.928 ± 0.033
SAGGPPIRIKVELWDPNGKEYTHTFPFGEPLDQILDNASKQFGLPLRVEDIEYDPDGMITITIRIPDSAGGS [r8_285_TrROS]	1.8 ± 0.1	1.77 ± 0.027	1.75 ± 0.036
SAGGPPRTVTVFVNDPDGNTYTFTFSDSVPLSTVVANVSKTLGVPLTVDSVTVHPDGTVTITVTNPGSAGGS [r8_285_TrMRF]	4.96 ± 0.062	5 ± 0.06	4.57 ± 0.14
SAGGPPVTLTLTLTFTETRTVRNPATGETVTVEKVTLTLTITLEPGMSKEQLEALLKELRELFPSLESAGGS [r8_306_TrROS_Hall]	5.11 ± 0.29	5.15 ± 0.28	3.53 ± 0.25
SAGGPPWVRVVDVRIEPVEDGGERRITLTFPPDVTLEEVRERVREMLPPGAEAELTVERVEVRPVLASAGGS [r16_393_JUSTAS]	1.49 ± 0.04	1.56 ± 0.019	1.27 ± 0.016
SAGGPRVEPLPLRVTYEDGVPPREVTVPLLAVTALDPETGEPVTFVNPGSLEVLAALLPPSVVSFDFSAGGS [r16_522_TrMRF]	0.755 ± 0.05	0.703 ± 0.066	0.714 ± 0.012

Sequence	folding stability dG unfold [1] [kcal/mol]	folding stability dG unfold [2] [kcal/mol]	folding stability dG unfold [3] [kcal/mol]
SAGGPRVFRLTYLDPETGEPRELRFSLPVPPAPDFISVYVNVPPELARRIAELLRELYPDKPVLVHRSAGGS [r8_437_TrMRF]	2.68 ± 0.049	2.971 ± 0.019	2 ± 0.036
SAGGPSVDIDPRLNEDGTPYVLATLHIVPVHSDGSSSSADIPVVFDSLDDLLAFVKAISPGSAKVSLSAGGS [r16_652_TrMRF]	0.959 ± 0.058	1.27 ± 0.083	0.42 ± 0.067
SAGGPTIRLLVLPNKAEEVAEAIKKEFGAEVKILRVEPYPLPGPDGKVLKPVYLVEIEVKVKDPRLPLSAGG [r13_943_TrMRF]	1.29 ± 0.17	1.3 ± 0.14	1.17 ± 0.051
SAGGPVETPGPHPLRPVPVVEPKKVVVTYPDLSPEEAAALAAELEAQGATTSFDPATGTLTVTLTGLSAGGS [r16_765_JUSTAS]	2.58 ± 0.072	3 ± 0.038	1.12 ± 0.043
SAGGPWVVIKIRTPNKPIEIPIPGFKIENTGDSMTIVFPPDDPDQVLDALEKASPGIKITKIEVVKPSAGGS [r8_490_TrROS]	0.575 ± 0.1	0.318 ± 0.12	0.65 ± 0.06
SAGGPYEFWFTITIDYPDLTPKQAVEEARKILRKLGFEITDIPVQVDPDPGWITVMARITIRPPEDASAGGS [r16_287_TrROS]	3.58 ± 0.16	3.98 ± 0.044	3.31 ± 0.063
SAGGPYYEWEIKLPDNKTISITMRRNPENGRPQHTVTIHDPEKGKPVKEHPFDSPEEAEELIEEGLLSAGGS [r8_450_TrROS]	0.287 ± 0.35	0.445 ± 0.21	-0.0517 ± 0.16
SAGGRAEEFATFLAELLRALLPPGEKVRATAVVTPEGVVVRVEHPLGFVAEALVKGDKLVRLELRPVSAGGS [r8_287_TrMRF]	3.6 ± 0.11	3.82 ± 0.09	3.17 ± 0.13
SAGGRAVLLATFTTPDGSLVLVYEDPATGRVLVVSFDPSTGRVSVLRLRRVPNTGDLFIEDRATFPLSSAGG [r19_249_TrMRF]	3.97 ± 0.12	4.36 ± 0.12	3.51 ± 0.059
SAGGRIEVRPLEGSGAVLVRILDPELRKKLEEKFPDVTEILFPVEGAEDIPLEELRDRAIKEIEELIDSAGG [r19_298_TrMRF]	0.956 ± 0.059	0.187 ± 0.056	1.4 ± 0.051
SAGGRKITINWNPNSGEIKVKIIWPDGEKEELPIPVPEGHDSPRQFADELKDNAQERFGEPVKIEITSAGGS [r8_166_TrROS]	-0.492 ± 0.4	-0.793 ± 0.21	-0.223 ± 0.15
SAGGRLVRIKVDIYSPGDGEPHEFEFLLHVDANGSVEIYFPNGKRIRIPPNMKVKIKDIEVLDPDQISAGGS [r16_223_TrROS]	3.17 ± 0.14	3.45 ± 0.11	2.56 ± 0.089
SAGGRVRLEEVEILPPLEDPEDNPDRPLLLLRVRARVEYDTPEGPREEERELVLVVSPERLEEALEALSAGG [r13_149_TrMRF]	1.37 ± 0.16	1.62 ± 0.13	0.794 ± 0.075
SAGGRYYFVRIEIYNPNNGRPFDIMIPFPGMPAEQVKEQVKEIADELAKQHGMDVKVKVEIQPLPPDSAGGS [r8_185_TrROS]	1.95 ± 0.17	2.06 ± 0.07	1.73 ± 0.092
SAGGSAAMVPPEELAERLAEELAAKEGREVTEVTVEVLDPERGVVRVTVTFRSPEGLSTRTVVVDLSAGGSA [r15_32_JUSTAS]	3.21 ± 0.049	3.191 ± 0.026	3.24 ± 0.057
SAGGSAAPLPPDETEVRVEYRYDPEKGVLVITTTTTRFTPEGGATPLETRPVVVEVTEEEKKKVELSAGGSA [r15_191_JUSTAS]	1.17 ± 0.1	1.04 ± 0.095	1.25 ± 0.046
SAGGSAAPVSRVVELEFVLPPELVAEAVDALRKLPGVKASFELAEVLPDGYVRVRVTIEVPDDVDLSAGGSA [r15_441_TrMRF]	3.8 ± 0.073	3.95 ± 0.073	3.46 ± 0.11
SAGGSAASVVEKTLSPDGTLFVTIKVDPEKKSVPFSITTPDGTPVTVTLPPNTTKTVRVPLGEAALSAGGSA [r15_336_JUSTAS]	-0.39 ± 0.15	-0.553 ± 0.27	-0.678 ± 0.28
